Earlier results in article PMC12475976.

Biological target: SREBF1 (Homo sapiens) (UniProt P36956)
Sequence (P36956 whole entry): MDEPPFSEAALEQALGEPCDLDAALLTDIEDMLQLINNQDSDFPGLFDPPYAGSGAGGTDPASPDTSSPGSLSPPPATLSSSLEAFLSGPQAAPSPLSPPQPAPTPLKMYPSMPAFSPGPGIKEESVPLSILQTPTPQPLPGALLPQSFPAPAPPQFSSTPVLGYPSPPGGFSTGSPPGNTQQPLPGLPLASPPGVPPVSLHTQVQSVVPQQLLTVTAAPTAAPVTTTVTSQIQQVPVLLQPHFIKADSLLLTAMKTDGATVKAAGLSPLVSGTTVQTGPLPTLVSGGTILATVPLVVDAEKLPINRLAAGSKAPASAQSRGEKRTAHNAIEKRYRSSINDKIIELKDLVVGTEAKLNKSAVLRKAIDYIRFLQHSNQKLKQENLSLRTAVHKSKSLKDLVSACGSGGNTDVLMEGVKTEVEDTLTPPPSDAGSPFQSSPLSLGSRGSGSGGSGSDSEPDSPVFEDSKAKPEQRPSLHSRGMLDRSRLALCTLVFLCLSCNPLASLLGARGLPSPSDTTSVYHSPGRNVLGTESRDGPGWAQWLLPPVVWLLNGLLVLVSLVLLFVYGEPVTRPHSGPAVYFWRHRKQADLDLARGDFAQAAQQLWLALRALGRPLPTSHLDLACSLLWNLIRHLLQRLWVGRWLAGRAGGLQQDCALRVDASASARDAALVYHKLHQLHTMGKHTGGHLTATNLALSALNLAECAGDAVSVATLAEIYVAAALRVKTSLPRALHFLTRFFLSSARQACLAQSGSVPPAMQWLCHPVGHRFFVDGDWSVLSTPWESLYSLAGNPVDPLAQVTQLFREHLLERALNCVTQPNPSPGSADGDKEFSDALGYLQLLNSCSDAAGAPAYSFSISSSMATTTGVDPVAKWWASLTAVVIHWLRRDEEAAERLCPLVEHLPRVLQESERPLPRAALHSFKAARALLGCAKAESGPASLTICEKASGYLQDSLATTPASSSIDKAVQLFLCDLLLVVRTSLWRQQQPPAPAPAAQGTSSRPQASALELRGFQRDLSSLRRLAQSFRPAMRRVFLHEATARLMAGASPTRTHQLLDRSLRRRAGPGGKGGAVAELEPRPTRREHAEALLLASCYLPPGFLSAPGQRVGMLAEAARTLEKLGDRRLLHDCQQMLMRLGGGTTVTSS

Chain of Vav2 (P52735 whole entry): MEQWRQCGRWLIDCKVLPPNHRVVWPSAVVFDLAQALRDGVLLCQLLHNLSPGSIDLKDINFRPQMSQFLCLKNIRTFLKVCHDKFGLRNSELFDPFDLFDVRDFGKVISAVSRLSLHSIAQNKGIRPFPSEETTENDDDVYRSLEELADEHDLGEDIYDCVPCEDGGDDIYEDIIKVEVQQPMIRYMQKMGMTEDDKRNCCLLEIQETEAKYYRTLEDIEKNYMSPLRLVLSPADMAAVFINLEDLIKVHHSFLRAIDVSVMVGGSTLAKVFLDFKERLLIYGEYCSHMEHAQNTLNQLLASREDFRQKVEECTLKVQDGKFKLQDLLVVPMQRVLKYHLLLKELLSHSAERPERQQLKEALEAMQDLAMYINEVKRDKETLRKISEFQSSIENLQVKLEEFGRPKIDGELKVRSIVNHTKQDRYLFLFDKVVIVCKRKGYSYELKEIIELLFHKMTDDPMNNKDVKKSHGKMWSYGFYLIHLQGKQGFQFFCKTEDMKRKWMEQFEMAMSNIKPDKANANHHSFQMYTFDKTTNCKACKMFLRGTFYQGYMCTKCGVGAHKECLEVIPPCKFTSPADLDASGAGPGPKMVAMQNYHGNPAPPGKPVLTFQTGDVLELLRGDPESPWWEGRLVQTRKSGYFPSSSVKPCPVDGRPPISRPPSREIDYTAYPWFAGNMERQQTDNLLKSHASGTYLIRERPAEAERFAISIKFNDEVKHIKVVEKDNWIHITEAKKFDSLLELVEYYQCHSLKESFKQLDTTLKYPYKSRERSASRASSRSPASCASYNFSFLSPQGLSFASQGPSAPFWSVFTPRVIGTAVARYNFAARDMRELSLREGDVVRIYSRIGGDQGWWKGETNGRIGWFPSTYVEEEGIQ

Kd: 8.3 nM
Substance: Vav2 (from UniProt P52735)
